Source: a protein production outcome set (Wang et al. 2014)

Test: label from the status in PepcDB records
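Further: failed if final PepcDB status was selected cloned or expressed and not failed if soluble or beyond.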

Row | Sequence | protein production
1 | MSQSLIAALQNPALFPHPVESFQVIETHISWVLLTGPYAYKFKKPMNFGFLDFTTLALREHFCQEELRLNKRLTDDMYLEVLPITGTAQAPQLGGDGDVIEYALKMKQFSQDGLLSTLQANGELTTAHIDELARQIADFHLDSPHVTAESELGSPDSVMAPVVQNFEQIRPLISEKSDLEQLDALQAWAESSFERLKPLLAQRKADGFIRECHGDIHLGNATVIDGKVVLFDCIEFNEPFRKTDVYADIGFLAMDLEDRGLKSLSRRLVSQYLEVTGDYVGLELLNFYKAYRAMVRAKVALFSQPADADGVQRAATLRQYRNYANLAESYSAIPSRFLTITHGVSAVGKSHVAMRLVESLGAIRLRSDIERKRLFAEGGEDLYGDEASSATYARLHELAGKTLRAGFSVVIDATYLKREQRDAAAKVAENTGVPFLILDCEAPQAVIASWLAQRQAQNNDPSDATLQVIEAQQASRELLSADEVLCSKKVATNIGSDLDSLVDNLRQRLPGLLEHHHHHH | not failed
2 | MSRASVTIGARRNGAIKAAAHARIRPVANSSCLAISRQMQHRYTMFEPKPQNPALAAALIFAATAFIAGTTLLAKALGTGALGPALPALQISHGRFLFALAVILSIVAATRPRLSRPHWGLHLGRTSFGWAGVTLMFAAVAYIPMADATAIAFLNPVFGMLLAIPLLGERVGPWRWGAAVIALVGALILLRPTPGSFQPAALLALAAAAVMGMELIFIKKLAGRERPIQILLVNNAMGLAIASLAVWPVWQAPLPAQWAALAGIGLLMACAQICFVNGMARADASFVAPFSYGTLVFAALYDLAVFQVWPDAISLGGAAIILTGALTLAWREGRVRRP | failed
3 | MSRELKLRIVSAIVMAAVILAATWYGGILFRIVAGLLAILIYYEWSTITRMSETNSTGNAWGWFAVAVIAGNTIFGESSLDLPLLSGFTLTAALFPVLRGKNWWLVGGIFYAGLSGISLAAIRGDELAGFASILFIFAVVWSTDILAYFVGRAIGGPKLAPSISPGKTWSGAVGGAVAAVIGGAAVSMAYHGRISLLLVGLALVLSVFSQIGDLFESFVKRRFQVKDSSHLIPGHGGFMDRVDGLVFACFTVFLIAFVHAAATGDVPGSGGGLLPGF | failed
4 | MSRGGFCQTYFAVDECQSPPVPYVVQKLHDNEQLLDSFQQKAQYIEQLSQNSQLPTLLAYFRDQDNYYFVQEFIAGASLAQVVQEEGAFHETQVWQLLTNLLPILKLMSDRQLIHGDIKPENIIRQLTPDSTNLVLVDFGHVQIVSRTDQITDVQGVGSPEYAAPEQITGQAVFASDLYSLGVTCIHLLTLVSPFDLFDIANDCWVWQQYLTTKISDRLTKILNKLIQKSVHQRFQSADEVMQVMGIEGKILHYPPPPSPWQCLHTLTGYSTNSLAISPDGNKLASGGDDKIIRLWELNTQKLLACFSGHSQAVTSVSFSPQGEILATASDDKTIKLWHLPTSSEVFTLNGHTNPVKSVSFSPNGQILASGSWDKQVKLWDVTTGKEIYALKAHQLQVSAVAFSPQGEILASASFDRTIRLWQITQNHPRYTLIKTLSGHTRAVLAIAFSPDGKILATGSDDNTIKLWDINTGQLIATLLGHSWSVVAVTFTADNKTLISASWDKTIKLWKVSTTEEIVTLASHLDSVCAVAVNPVTQVIASSSRDKTIKLWQLVIQQN | failed
5 | MSRISVVIPAYNEASDLPQTIQGIRDLSLECEVIVVDDGSVDDTKKIAERLADITVALPVNQGKGQALMEGWKRAEGTHIVMLDADLGSTSSEMAHLLPPLLTNEADLVIGMLPTHSSKKGFGLVKKRAQQYIAKRTGAFLTAPLSGQRAFHRRWLPSLLEENVQGFGVETQMLLHFLLRGAVVKEIPTLMAHRYTGKTISGFIHRFQQWIDIERALRGSNTLEHHHHHH | not failed
6 | MSRMRVLRLRLYGVVFLAVLALLLSLSVAVYQQVFTPAVRIKLEADSLGNQLDPRADVKLRGLLVGEVRAVHADGTKATLDIALKPEYVASIPSDAHARLLPKTLFGEKYVDLVAPARSSARPIRAGDVITQDRTRVGIELQQLMNDLLPLLRTVQPGKLNATLSAFATALEGRGDRIGDNLTRVEDYLHRLNPHLPSLTEDFARLADVAEVYGDAAPDLMEILRNTVTTSRTLVEQRDRLASALTTTATAAGTADDFLDANGDRLITLGRVSRPTLDLFARYSPEYPCLFAGLVREEQASEQAFRGGKMHITLEVVRQQGAYEPGEYPRYDDRSGPNCRDLPHPPVPAPGVHLNDGSTKGSASGGPGGVSATRAEQRSVGSLVAPVLGVPADQVPPVATLLFGPMARGTAVSVA | failed
